The series is described as follows: soluble on expression in E. coli; label from the status in PepcDB or PDB records.
In the case of “PLGSKDNRLLYPKTKIDWGPGENHICLKTPFKNFYVIELFHQAPTFDKTIPLFISDINNSPNLYGIYNYIADHLRHVVLVNNYPVNQINIFGKIVYEQYKEKEFNGVEESYVILVISDFIGIDSKIRVRLSQEQFKEVGLTLDKKNYGKIVELEGEIYNWYDSINVSKKPDRELKVSKITVLSHRPDGLHFEFEQWKKRMEFRKNNLVEPWVFIPTPQRE”, the “soluble on expression in E. coli” value is given as “soluble”. For “MEMSLEEFKTMFKTVMKKEFEDELHRITEPGKSKMAIERYIQGINLLDKKCILDNDENHNVLFKFAPIDQDFAHSSTNLSTPSPLEEESARENNHEAQELDITERIARMNLIGGSEFQMQYSSFLTAVSTKPSTDASLKKEARRLAEIWWAKNLRFFPQTMYVLQKLDQKNPDGFNYTDFEEEVQKVIPRSWIQNHHSFTLLSLLNEESLYVKFNLIMPSDSENMNRVKVNQVIKFLGFHEIGDCEFSMIYQYVSSKSASESTYSIHKFMCEDFPGWETQYNNEKKSMDRIFEIIIQEQKLFWTEYDYHTYKRHAYKIAVPMVFSLNIVDKAVGVRSDAR” the value was “not soluble”; for “MSLKLNWDKAIDKAIKRYGLRVEPQLISYFSKAGVSYPPKEIALLAFKSERKVELWAKNPSQEWTHIHDYPLTGFSGRLGPKLRENDKQIPEGIYKLVNFNPFSSMHLSMMINYPNSFDRQKGYMDGRKELGNNIFIHGKNLSVGCLAVGDLAIDQLFILARRVGLKNIQVIIAPNDLRYQKPSTSTFAQPRWLPELYKQITESLKPFKKTKFTAEGHHHHHH”, “soluble”. For “MGSDKIHHHHHHACSISYKFNGSSIDYTKVKTISFENFPNRSAGFVWGPMENMFNTALQDIYMQQTRLKQVKRSGDLQLSGEITNYEAFNKGIGSDGYSSMVELRMTVRVNFVNSSNPTENMNGQQFSASREYNSNQQLSAVQDELVNQMIKEIVEQIFNATVANW” the value was “not soluble”; for “PTEFLYTSKIAAISWAATGGRQQRVYFQDLNGKIREAQRGGDNPWTGGSSQNVIGEAKLFSPLAAVTWKSAQGIQIRVYCVNKDNILSEFVYDGSKWITGQLGSVGVKVGSNSKLAALQWGGSESAPPNIRVYYQKSNGSGSSIHEYVWSGKWTAGASFGSTVPGTGIGATAIGPGRLRIYYQATDNKIREHCWDSNSWYVGGFSASASAGVSIAAISWGSTPNIRVYWQKGREELYEAAYGGSWNTPGQIKDASRPTPSLPDTFIAANSSGNIDISVFFQASGVSLQQWQWISGKGWSIGAVVPTGTPAGW”, “soluble”. For “MGSDKIHHHHHHMMRALYTAATGMRAEQTNVDTIANNLSNVNTTGFKGQRTEFKSLLYQTIQTRSTSGNGDAKPVGAQVGLGTRVAATTSTYTQGPLNSTERPTDFALEGDGFFAVRGTDNQTYYTRNGAFTWSQYGNGQTILTDSQGNPVMDTNGNIIAVPAGVSAEKMSFGEDGAVGYMTAQGNYINLNQRIAVYQFNNPSGLEKQSGSLLAATANSGNPMLEIANPALKSSKVVTGYLEGSNVQVADEMVNLIVAQRAYELNSKAITTADSMLETANNLRR” the value was “not soluble”.

In the case of “MSLEPYRPICQNRPICGKIPRLNLTEGDTVLDREGYRPNVGIILINERNEVFWGKRVREHSWQFPQGGIKPGESPETAMYRELYEEVGLLPQHVKIVGRTRDWLRYDVPNNWVRREWRGSYRGQKQIWYLLRLTGRDCDVNLRATRHPEFDGWRWHQYWAPVDEVIDFKRDVYLEALKELSSRFLRGMESYEDFAARQPSGNREGHHHHHH”, the “soluble on expression in E. coli” value is “soluble”.

As for “MSLFLIMSGAYVGQELESEFGRIPPSFLPLGNRRLFQHQVALAPQGVKVYLSLPESYVVSEIDLQWLEQNQVTIIATPDGLSLGASLVAALNISGHSLNAPLHILYGDTLFNQLPVGDDIVSVSTAKDSYNWAVLTNDDVDWLQDANTPMSHESQRIIDGYFKFSHPRELVRCITQSEWKFIAGLNRYHKSVGLSAVNSIGWLDFGHVNTYYHSKAEFTTQRAFNELTITAKWIEKSSIKNQKIAAEAYWFDNLPMAMRGFIPQYLGSQNSEGKISYRLEYLYLTALNELFVFSRLPSQIWQKILASAVEFLSLCLEQAVEPNAPINTLDILFADKTALRLNEFCAARHITLEDQWQFAGQDISLAQILRDSQKHLPDGKPLLGVLHGDFCFSNILYDFRANKIKTIDPRGMTPDGQKTLYGDIRYDLAKLSHSILGLYDWIIAGYYHVEIADNAIELKIAEQSHHKETQQGFIELIEQTFGLTAKNLYAMQIQLFLSMLPLHADDRRRQDALFANAFRLHQILLRLDQEGHHHHHH”, the “soluble on expression in E. coli” value was “soluble”. Take “MSLKIAKVEALSVAMGDGTGWMPTSAFVRITAEDGTVGWGEASPMLGGIASLGVVARDIAPFLEGQEVLDHAVLLDRMMHRLVKLGPEGIATAALAACDIALWDLKGKLLGQPIYKLLGGAWRTRLPCYSSIGGNAARSVDEVVREVARRVEAEQPAAVKIRWDGDRTRCDVDIPGDIAKARAVRELLGPDAVIGFDANNGYSVGGAIRVGRALEDLGYSWFEEPVQHYHVGAMGEVAQRLDITVSAGEQTYTLQALKDLILSGVRMVQPDIVKMGGITGMMQCAALAHAHGVEFVPHQTQPGVGHFANIHVLSTLMHMTKPVELADRWDRGRPVFRNPAEPVDGHFALGDAPGLGIVVDEDELASRATEITVGRDQRPPAGGQYEGHHHHHH”: the “soluble on expression in E. coli” value was “soluble”. The result for “GSSSGGGSSSSGTSSAFSSYFNNKVGIPQEHVDHDDFDANQLLNKINE” reads “soluble”; that for “MDKLSLEEKVDLLIENGIRILNKAYALEKKPVDMGHGVLLYPSEFHLIETAGKNPAENLTSISSRLGVTKGAISQMVKKLEKKGLVKKVRVPGNKKDVMLELTDFGREAFEWHKSLHESMEAGIRKELEGMSSSEMETFLRVYGHLERMLDRCMERYR”, “not soluble”; that for “MGSDKIHHHHHHAALSTNTVAVEKAPDMVAVMGGEPEVMLDKALEALGGIGNFVKKGQKIVIKPNIGWDRSPELAGNTNPKLVKALVKKCLEAGASKVTVFDHTCDNWQKCYETSGIAEAVKEAGGIIMPANDEKYFKEVSIPGGVNLKSAKIHEALIEADAWINVPVLKNHGGAKMTCAMKNYMGIVWDRRFFHQNDLQQCIADICTWQKKPVLNIVDAYRIMHQNGPQGKSAADVATLKSLIASPNIVAIDTAALRLFNQVKKLDMAAVGHIGKGEALKLGTTNLDNVTIKRIKI”, “not soluble”. The result for “MSLYKVTRGKSEQYLKDERALEDYLIATGLDDCAFKLANGEVRGGRDLLALVEDARAIRSTLHNLHSRYNRSVVEQAAIAGVLSPRITTDIATANEAAAYIARRLDALADEVERGWVGHFTEGEGFRFERTVRGVKEVAAIDDAMLGSADARKLDEYAAVLQEVYPRPGVLRRKEAETAIHGPISLFEAVTDAGRKGVALQRYKGLGEMNPSQLWETTLDTNARSLLQVKVREVDEADDIFTKLMGDVVEPRREFIQENSLHATVDVEGHHHHHH” reads “soluble”; that for “MTDMKVLKMEVMRYNPERDSEPHFETFEVPYDEQTSLLDALGYIKDNLAPDLSYRWSCRMAICGSCGMMVNKVPKLACKTFLREYTAGMKVEALGNFPIERDLVVDMTHFIESLEAIKPYIIGNERLPKDGPNKQTPAQMAKYHQFSGCINCGLCYAACPQFGLNPEFIGPAAITLAHRYNLDNRDHGKKERMPQLNGKNGVWSCTFVGYCSEVCPKHVDPAAAIQQGKIDSAKDFMIAMLKPQ”, “not soluble”. For “LGRLFGTDGVRGVANLELTAELAYKLGQAGAYVLTSETKHTPKILVGMDTRISGDMLEASLVAGLCSVGAEVACLGIAPTPTVAYLTRYYNADAGVVISASHNPYEFNGIKFFNSKGYKLSDALEERIESIILDNSEKIQLPTGEKIGRKIEIESPLDDYVNFIKSTIKGDLKGLKVAIDCANGASYQVAPVTFFELGADVCVINNEPDGVNINKDCGSTHIEQLQKFVIESGADVGLAFDGDADRVLAVDENGNMVDGDQIMAIIGLELKKQGKLTNNTIVATVMSNLGLDIMAKREGINIVKTKVGDRYVLENMLENGHVLGGEQSGHIIFLEHSTTGDGILTGAQLLNVVKSSGKKLSELASIMQVLPQVLMNARVSNQNKEKYLEDEVICEMCKELENEFRDEGRVLIRPSGTEPLVRVMIEGKDRDYIEKRALELVKVIEERLG” the value was “soluble”.

The values above are taken from the DeepSol protein solubility set.
